Data on two molecules can be found in article PMC11079059, “Development of a new affinity maturation protocol for the construction of an internalizing anti-nucleolin antibody library” (Scientific Reports, 2024).

The assay concerns the target T1, nucleolin (Homo sapiens, UniProt P19338).
T1 construct: The cells were not transfected; also called cell surface nucleolin; source: endogenous, on nucleolin-overexpressing MDA-MB-435S cells
Kind of assay: flow cytometry on cells; 1.5 x 10^5 MDA-MB-435S cells with 1 µg of each purified VHH, 45 min at 4 °C, PBS with 1% BSA; detected with anti-HA-Alexa Fluor 647; MFI normalised to cells with secondary antibody only; a representative experiment. Particulars: one partner purified. A general note: In flow cytometry, cells or beads pass a laser one at a time.

T1 sequence (P19338 whole entry): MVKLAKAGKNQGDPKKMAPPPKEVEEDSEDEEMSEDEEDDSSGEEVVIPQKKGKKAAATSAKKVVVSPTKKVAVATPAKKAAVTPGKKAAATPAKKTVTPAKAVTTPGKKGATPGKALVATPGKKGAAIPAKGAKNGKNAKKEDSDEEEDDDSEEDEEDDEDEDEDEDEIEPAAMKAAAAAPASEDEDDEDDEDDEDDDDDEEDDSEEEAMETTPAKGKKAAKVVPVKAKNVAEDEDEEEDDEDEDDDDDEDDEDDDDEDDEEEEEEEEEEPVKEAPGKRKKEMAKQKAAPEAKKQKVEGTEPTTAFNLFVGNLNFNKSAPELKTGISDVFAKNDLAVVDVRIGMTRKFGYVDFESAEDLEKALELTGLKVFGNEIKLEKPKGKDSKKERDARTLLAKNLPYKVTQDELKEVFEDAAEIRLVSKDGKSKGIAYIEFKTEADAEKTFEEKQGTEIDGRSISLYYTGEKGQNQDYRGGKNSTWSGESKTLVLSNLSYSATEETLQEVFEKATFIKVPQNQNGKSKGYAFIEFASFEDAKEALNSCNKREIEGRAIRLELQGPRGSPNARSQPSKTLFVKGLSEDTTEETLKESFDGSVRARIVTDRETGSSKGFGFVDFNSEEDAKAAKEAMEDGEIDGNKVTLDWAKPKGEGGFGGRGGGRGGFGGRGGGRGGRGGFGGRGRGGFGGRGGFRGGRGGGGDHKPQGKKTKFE

B1: VHH clone D10 (VHH)
VHH: QVQLQESGGGLVQPGGSLRLSCAASGRASASSARSARAIGWFRQAPGKEREFVARIYWSSGNTYYADSVKGRFAISRDIAKNTVDLTMNNLEPEDTAVYYCAAPQRRSARLSAWGQGTQVTVSS
notes: source: ER2738 E. coli, IPTG induction, purified (Dynabeads His-Tag Isolation & Pulldown)
On to B1, for which the “fold increase in binding (normalised MFI) relative to the reference VHH” value turned out to be 1.4 fold.

B2: VHH clone D11 (VHH)
VHH: B1 VHH
notes: as for B1
For B2, the “fold increase in binding (normalised MFI) relative to the reference VHH” value worked out at 2 fold.
